In patent US20190106487A1 (Sanofi, published 2019):

T1: rhIL-1RAcP/Fc Chimera (human, UniProt Q9NPH3 21-359)
T1 construct: also called P013_03; P013-03
T1 sequence (looked up): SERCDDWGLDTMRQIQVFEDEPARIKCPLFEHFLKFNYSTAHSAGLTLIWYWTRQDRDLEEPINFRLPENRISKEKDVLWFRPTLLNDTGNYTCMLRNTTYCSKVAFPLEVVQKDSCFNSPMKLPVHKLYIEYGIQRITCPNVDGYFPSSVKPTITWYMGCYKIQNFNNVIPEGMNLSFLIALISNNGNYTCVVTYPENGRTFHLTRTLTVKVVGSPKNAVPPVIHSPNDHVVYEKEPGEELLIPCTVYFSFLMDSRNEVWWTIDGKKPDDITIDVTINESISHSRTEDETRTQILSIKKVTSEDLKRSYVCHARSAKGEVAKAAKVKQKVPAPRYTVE

T2: human IL-1RAcP on 293T/17-FR cells (human, UniProt Q9NPH3 21-570)
T2 sequence (looked up): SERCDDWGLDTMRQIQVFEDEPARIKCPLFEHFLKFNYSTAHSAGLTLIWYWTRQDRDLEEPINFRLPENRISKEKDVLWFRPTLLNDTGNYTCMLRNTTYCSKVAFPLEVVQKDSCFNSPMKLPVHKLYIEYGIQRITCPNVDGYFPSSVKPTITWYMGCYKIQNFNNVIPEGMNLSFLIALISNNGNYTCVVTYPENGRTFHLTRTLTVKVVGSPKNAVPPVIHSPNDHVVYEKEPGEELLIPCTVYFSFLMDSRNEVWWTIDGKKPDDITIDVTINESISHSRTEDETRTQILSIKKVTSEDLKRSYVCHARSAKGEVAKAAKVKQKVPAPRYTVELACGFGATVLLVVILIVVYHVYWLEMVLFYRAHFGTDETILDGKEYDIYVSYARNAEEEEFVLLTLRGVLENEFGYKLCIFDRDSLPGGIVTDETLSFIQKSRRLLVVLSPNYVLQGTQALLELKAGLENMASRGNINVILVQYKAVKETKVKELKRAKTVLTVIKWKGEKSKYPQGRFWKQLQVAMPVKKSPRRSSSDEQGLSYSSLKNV

T3: mIL1RAcP-Fc (murine, UniProt Q61730 21-359)
T3 construct: also called P013_04; P013-04
T3 sequence (looked up): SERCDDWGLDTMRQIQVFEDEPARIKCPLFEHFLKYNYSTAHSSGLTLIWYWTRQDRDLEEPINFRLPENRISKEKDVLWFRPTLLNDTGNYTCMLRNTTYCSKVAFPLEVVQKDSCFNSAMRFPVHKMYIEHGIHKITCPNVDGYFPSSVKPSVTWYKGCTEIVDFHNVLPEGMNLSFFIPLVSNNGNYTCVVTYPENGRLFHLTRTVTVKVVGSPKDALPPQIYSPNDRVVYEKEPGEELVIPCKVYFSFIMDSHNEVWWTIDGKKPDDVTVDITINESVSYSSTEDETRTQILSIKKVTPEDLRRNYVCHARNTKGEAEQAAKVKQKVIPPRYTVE

B1: P013.S.02.B.G01 (antibody, V domains shown)
VH: QSVEESGGRLVTPGGSLTLTCKVSGFSLSDYDIYWVRQAPGKGLEWIGVIDIENSVYYPTWAKGRFTISKTSTTVDLKITSPTTEDTATYFCARGDYIMTLDLWGQGTLVTVSS
VL: AAVLTQTPSPVSAAVGGTVTISCQASQSVYKNNRLAWYQQKPGQPPKLLIYLASTLASGVPSRFKGSGSGTQFTLTISDLESDDAATYYCAGGYSTISENAFGGGTEVVVK
notes: rabbit monoclonal antibody; also called P013.A.00015.G07
B2: P013.S.02.B.G03 (antibody, V domains shown)
VH: QSVEESGGRLVTPGTPLTLTCTVSGFSLSSYGMIWVRQAPGEGLEWIGFIGRGGATWYASWVKGRFTISKTSTTVDLKITSPTASDTATYFCARDGDSSDYYAFNLWGQGTLVTVSS
VL: DVVMTQTPASVSEPVGGTVTIKCQASQNIGSNLAWYQQRSGQPPKLLIYGASTLASGVPSRFSGSGSGTEFTLTISGVQSADAATYFCQCSGYDITGVFPFGGGSEVVVK
notes: rabbit monoclonal antibody; also called P013.A.00014.D07
B3: P013.S.02.B.H02 (antibody, V domains shown)
VH: QSLEESGGRLVTPGTPLTLTCTVSGFSLSSCAMIWVRQAPGKGLEWIGFIGRGGSTWYASWVNGRFTISKTSTTVDLKITSPTTEDTATYFCARDGDFSDYYTFNLWGQGTLVTVSS
VL: DVVMTQTPASVSEPVGGTVTIKCQASQNIGSNLAWYQQKPGQPPKLLIYGASTLASGVPSRFSGSGSGTEFTLTISGVQSADATTYYCQCSGYDTTGVFPFGGGSEVVVR
notes: rabbit monoclonal antibody; also called P013.A.00015.B10
B4: P013.S.01.B.B05 (antibody, V domains shown)
VH: QSLEESGGRLVTPGTPLTLTCTASGFSLSSYYMSWVRQAPGKGLEWVGIISGSASTYYATWAKGRFTISKTSTTVDLKIASPTTEDTATYFCARTHYAAVAGYGYASRLDLWGQGTLVTVSS
VL: AIEMTQSPPSLSASVGETVRIRCLASEDIYSGISWYQQKPGKPPTLLIYAASNLESGVPPRFSGSGSGTDYTLTIGGVQAEDAATYYCLGGYSYSNTGPTFGAGTKVEIK
notes: rabbit monoclonal antibody; also called P013.A.00030.D07
B5: P013.S.01.B.E06 (antibody, V domains shown)
VH: QSLEESGGDLVKPGASLTLTCTASGFSFSSTYYMCWVRQAPGKGLEWIACIYAGSSGSTYYASWAKGRFTISKTSSTTVTLQMTSLTAADTATYFCARVDGSSSGSWDLWGPGTLVTVSS
VL: AIEMTQTPSSVSAAVGGTVTINCQASQNIYSNLAWYQQKPGQRPKLLIYAASLLASGVPSRFKGNGSGTEYTLTISDLESADAATYYCQGAVYSGNTEWAFGGGTEVVVK
notes: rabbit monoclonal antibody; also called P013.A.00030.F07

Columns and labels:
rhIL-1RAcP/Fc Chimera [1] = molecular target: T1, rhIL-1RAcP/Fc Chimera; experiment: ELISA, primary supernatant, coated hu-IL-1RAcP-Fc
Excerpt: Microtiter plates were coated IL-1RACP and/or IL12Rβ1 protein (recombinant Fc chimeric conjugates of human IL-1RACP or IL12Rβ1). After a blocking process, specific antibodies from B-cell supernatants bind to the targets and are then detected by a POD-labeled anti-rabbit IgG antibody. The IL12Rβ1 binding was used as a counterscreen. IL-1RACP protein was tagged with a linker, huFc and His like the IL12Rβ1 protein. Antibodies which bind to the tag were positive in both assays, whereas antigen specific antibodies just bound to IL-1RACP and not to IL12Rβ1.
12.5 μL 0.5 μg/mL IL-1RACP protein in PBS was transferred to a microtiter plate, incubated and washed 3× with Wash Buffer. 90 μL Block Buffer was added to each well, incubated and washed. 12.5 μl Standard Antibody (rabbit mAb against IL-1RAcP, anti IL12Rbeta1 antibody: IL-12Rbeta1 antibody; GeneTex; Cat. No. GTX103917) or sample diluted in ELISA buffer was added, incubated and washed. 12.5 μl 1:5000 POD-Antibody (Anti-rabbit IgG, peroxidase-linked species-specific Fab2 fragment (from donkey) (ECL); assay dilution: 1:5000) in Elisa Buffer was added, incubated and washed. 15 μl TMB was added and 15 μl HCl was added after sufficient development. Absorbance (Optical Density O.D.) was read at 450 nm/620 nm.

[2] = molecular target: T2, human IL-1RAcP on 293T/17-FR cells; experiment: cell-based or functional assay
mIL1RAcP-Fc = molecular target: T3, mIL1RAcP-Fc; experiment: ELISA, primary supernatant, coated mu-IL-1RAcP-Fc
rhIL-1RAcP/Fc Chimera [3] = molecular target: T1, rhIL-1RAcP/Fc Chimera; experiment: ELISA, recombinant purified mAb

Binder | hu-IL1RaP ELISA (OD) (rhIL-1RAcP/Fc Chimera [1]) | functional reporter gene assay (% inhibition), 0.04 µg/mL mAb [2] | functional reporter gene assay (% inhibition), 0.2 µg/mL mAb [2] | functional reporter gene assay (% inhibition), 1 µg/mL mAb [2] | functional reporter gene assay (% inhibition), 5 µg/mL mAb [2] | primary supernatant functional assay (% inh.), NF-kB luciferase reporter [2] | mu-IL1RaP ELISA (OD) (mIL1RAcP-Fc) | EC50 (rhIL-1RAcP/Fc Chimera [3])
B1 | 2.2 OD | 1% | 1% | 10% | -5% | -36% | 0.4 OD | 
B2 | 1.4 OD | 6% | 0% | 5% | 17% | -39% | 1.1 OD | 
B3 | 3 OD | 25% | -2% | 28% | 28% | 36% | 0.8 OD | 
B4 | 3.3 OD | 52% | 81% | 93% | 96% | 85% | 0.1 OD | 
B5 | 3.4 OD | 44% | 60% | 93% | 91% | 72% |  | 0.447 µg/mL
